Results on 9 molecules are retold here after patent US20260234242A1 (HAINAN SIMCERE ZAIMING PHARMACEUTICAL, published 2026).

Assay [1] has as its target T1, his-tagged human CDH6 extracellular region protein (hCDH6 ECD-his) (human, UniProt P55285 19-615).
T1 construct: also called Human CDH6-his; hCDH6-his; not shown: his tag
T1 sequence: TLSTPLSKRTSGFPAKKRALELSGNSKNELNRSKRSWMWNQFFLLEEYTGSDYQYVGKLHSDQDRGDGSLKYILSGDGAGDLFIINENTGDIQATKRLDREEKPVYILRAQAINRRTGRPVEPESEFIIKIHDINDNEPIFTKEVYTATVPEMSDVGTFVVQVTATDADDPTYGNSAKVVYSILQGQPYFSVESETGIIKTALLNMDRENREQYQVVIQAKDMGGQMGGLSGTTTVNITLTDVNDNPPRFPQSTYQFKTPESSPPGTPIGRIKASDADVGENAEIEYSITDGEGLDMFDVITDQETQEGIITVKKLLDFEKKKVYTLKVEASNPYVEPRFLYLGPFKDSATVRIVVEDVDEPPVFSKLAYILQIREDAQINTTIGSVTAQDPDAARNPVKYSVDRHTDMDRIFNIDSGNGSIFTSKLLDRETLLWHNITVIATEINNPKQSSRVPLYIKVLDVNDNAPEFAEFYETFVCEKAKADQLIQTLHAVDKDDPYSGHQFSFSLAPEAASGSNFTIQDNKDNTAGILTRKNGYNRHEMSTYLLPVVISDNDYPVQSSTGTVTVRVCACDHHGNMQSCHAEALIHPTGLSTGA
Nature of the assay: ELISA, coated antigen.

In assay [2] the target is T2, human CDH6 on tumor cells (OVCAR3 cells, PA-1 cells) (human, UniProt P55285 54-790).
T2 sequence: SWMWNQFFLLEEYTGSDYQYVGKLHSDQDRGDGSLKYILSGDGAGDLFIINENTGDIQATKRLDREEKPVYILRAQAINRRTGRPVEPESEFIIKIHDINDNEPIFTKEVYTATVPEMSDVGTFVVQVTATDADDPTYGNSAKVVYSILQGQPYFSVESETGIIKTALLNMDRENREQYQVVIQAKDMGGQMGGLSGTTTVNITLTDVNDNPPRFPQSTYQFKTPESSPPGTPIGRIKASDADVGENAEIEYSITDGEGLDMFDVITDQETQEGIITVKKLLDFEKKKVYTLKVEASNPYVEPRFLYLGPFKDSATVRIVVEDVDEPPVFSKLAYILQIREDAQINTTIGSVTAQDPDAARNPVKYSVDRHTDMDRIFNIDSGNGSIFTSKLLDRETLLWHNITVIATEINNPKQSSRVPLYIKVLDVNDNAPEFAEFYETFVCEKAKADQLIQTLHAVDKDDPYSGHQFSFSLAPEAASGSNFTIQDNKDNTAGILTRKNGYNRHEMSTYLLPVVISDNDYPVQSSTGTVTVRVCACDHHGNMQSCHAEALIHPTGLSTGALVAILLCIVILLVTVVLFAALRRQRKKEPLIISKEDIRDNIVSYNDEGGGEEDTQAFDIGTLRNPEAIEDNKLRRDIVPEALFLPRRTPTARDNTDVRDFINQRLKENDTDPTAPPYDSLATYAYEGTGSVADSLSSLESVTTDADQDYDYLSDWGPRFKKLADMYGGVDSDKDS
In words: FACS, OVCAR3 cells. As for the experimental part: OVCAR3 cells with high expression of CDH6 and PA-1 cells with moderate expression of CDH6 were used to detect the binding activity of the antibodies to the cells. […] The cells were washed once with PBS, counted, resuspended to 2×10⁶ cells/mL in an FACS buffer (PBS+2% FBS), and then added to a 96-well plate at 50 μL/well. The chimeric antibodies were diluted with FACS buffer (PBS+2% FBS) and added to the 96-well plate at 50 μL/well, and the plate was incubated at 4° C. for 1 h. […] The dilution was added to the 96-well plate at 50 μL/well, and the plate was incubated at 4° C. for 1 h. After the plates were centrifuged and washed 2 times with PBS, the cells were resuspended in an FACS buffer. The mean fluorescence intensity (MFI) was measured using FACS Canton II (BD). Analysis was performed by the GraphPad Prism software, data were fitted, and EC50 values were calculated. The chimeric antibodies tested had strong binding to both OVCAR3 cells and PA-1 cells.
According to the above sequences, heavy chain (HC) and light chain (LC) plasmids were constructed (the nucleic acid sequences encoding the VH and VL of the antibodies were recombined into an expression vector carrying a signal peptide (SEQ ID NO: 132, […]) and a heavy chain constant region/light chain constant region sequence to obtain recombinant plasmids expressing VH-CH1-Fc/VL-CL). According to the expression and purification methods in Example 2, the hCDH6-1 humanized antibodies were obtained, and the binding activity of the humanized antibodies was detected by ELISA and FACS (see 2.2 and 2.3 for the method).

In assay [3] the target is T1, his-tagged human CDH6 extracellular …. Nature of the assay: SPR Biacore, antibody captured on Protein A. As for the experimental part:
The affinity of the antibody for the antigen was determined by a multi-cycle kinetic method using a BIAcore 8K instrument. In each cycle, the antibody to be tested was captured using a Protein A chip (purchased from GE, Cat. No. 29-1275-56), and then the antigen human CDH6 protein (hCDH6-his, conventionally synthesized) was injected. The association and dissociation processes of the antibody with the antigen protein were recorded, and finally, the chip was regenerated using Glycine pH 1.5, wherein the mobile phase was HBS-EP+ (10 mM HEPES, 150 mM NaCl, 3 mM EDTA, 0.05% surfactant P20, and 1 mM Ca), the flow rate was 30 μL/min, the association time was 240 s, the dissociation time was 300 s, the regeneration time was 30 s, the detection temperature was 25° C., and the antigen concentration was 31.25-1000 nM. The data were analyzed using Biacore 8K analysis software (version No. 2.0) based on the 1:1 binding model to fit the antibody-antigen binding kinetic parameters, including the association rate constant ka, the dissociation rate constant kd, and the equilibrium dissociation constant KD. The affinity values of the control antibody DS-H01L02 were undetectable. Antibodies not shown in the table had undetectable affinity values.
Four hCDH6-1 humanized antibodies with fewer back mutations were selected, and the affinity for human CDH6 protein was further confirmed using Biacore.

B1: hCDH6-1-H1L1 (antibody, V domains shown)
VH: EVQLVQSGAEVKKPGSSVKVSCKASGYTFSNYWMHWVRQAPGQGLEWMGDIDPSHSETHYTQKFKDRVTITVDKSTSTAYMELSSLRSEDTAVYYCARGDLGRFDYWGQGTTVTVSS
VL: DIVMTQSPDSLAVSLGERATINCRASESVSIHGTHLMHWYQQKPGQPPKLLIYAASNLESGVPDRFSGSGSETDFTLTISSLQAEDVAVYYCQQSFEDPWTFGGGTKVEIK
notes: Humanized
Consider B1, for which, in assay [1], the EC50 was found to be 25 pM and the “Max OD450” value stood at 2.8 OD450. Also, in assay [2], a half-maximal response (EC50) required 166 pM and the “Max MFI” value worked out at 14400 MFI. In assay [3], this molecule gave a Kd of 21700 pM, a koff of 0.00456 s⁻¹ and a kon of 210000 M⁻¹ s⁻¹.

B2: hCDH6-1-H4L1 (antibody, V domains shown)
VH: EVQLVQSGAEVKKPGSSVKVSCKASGYTFTNYWMHWVRQRPGQGLEWMGDIDPSHSETHYTQKFKDRVTITVDKSTSTAYMELSSLRSEDTAVYYCARGDLGRFDYWGQGTTVTVSS
VL: DIVMTQSPDSLAVSLGERATINCRASESVSIHGTHLMHWYQQKPGQPPKLLIYAASNLESGVPDRFSGSGSETDFTLTISSLQAEDVAVYYCQQSFEDPWTFGGGTKVEIK
notes: Humanized
Consider B2, for which, in assay [1], the EC50 is 31 pM and the “Max OD450” value came out at 2.62 OD450. For the same molecule, in assay [2], the EC50 is 152 pM and the “Max MFI” value stood at 14000 MFI.

B3: hCDH6-1-H4L3 (antibody, V domains shown)
VH: EVQLVQSGAEVKKPGSSVKVSCKASGYTFTNYWMHWVRQRPGQGLEWMGDIDPSHSETHYTQKFKDRVTITVDKSTSTAYMELSSLRSEDTAVYYCARGDLGRFDYWGQGTTVTVSS
VL: DIQMTQSPSSLSASVGDRVTITCRASESVSIHGTHLMHWYQQKPGKPPKLLIYAASNLESGVPSRFSGSGSETDFTFTISSLQPEDIATYYCQQSFEDPWTFGGGTKVEIK
notes: Humanized
In the case of B3, in assay [1], a half-maximal response (EC50) required 29 pM and the “Max OD450” value turned out to be 2.61 OD450. Besides, in assay [2], the EC50 was 162 pM and the “Max MFI” value turned out to be 15100 MFI.

B4: hCDH6-1-H2L2 (antibody, V domains shown)
VH: EVQLVQSGAEVKKPGSSVKVSCKASGYTFTNYWMHWVRQAPGQGLEWMGDIDPSHSETHYTQKFKDRVTITVDKSTSTAYMELSSLRSEDTAVYYCARGDLGRFDYWGQGTTVTVSS
VL: DIVMTQSPDSLAVSLGERATINCRASESVSIHGTHLMHWYQQKSGQPPKLLIYAASNLESGVPDRFSGSGSETDFTLTISSLQAEDVAVYYCQQSFEDPWTFGGGTKVEIK
notes: Humanized
On to B4, for which, in assay [1], the EC50 is 26 pM and the “Max OD450” value was determined as 2.63 OD450. For the same molecule, in assay [2], the EC50 worked out at 147 pM and the “Max MFI” value stood at 14300 MFI.

B5: hCDH6-1-H3L3 (antibody, V domains shown)
VH: EVQLVQSGAEVKKPGSSVKVSCKASGYTFTNYWMHWVRQAPGQGLEWMGDIDPSHSETHYTQKFKDRVTLTVDKSTSTAYMELSSLRSEDTAVYYCARGDLGRFDYWGQGTTVTVSS
VL: DIQMTQSPSSLSASVGDRVTITCRASESVSIHGTHLMHWYQQKPGKPPKLLIYAASNLESGVPSRFSGSGSETDFTFTISSLQPEDIATYYCQQSFEDPWTFGGGTKVEIK
notes: Humanized
For B5, in assay [1], the EC50 was determined as 30 pM and the “Max OD450” value is 2.71 OD450. Also, in assay [2], the EC50 turned out to be 155 pM and the “Max MFI” value came out at 14600 MFI.

B6: hCDH6-1-H1L2 (antibody, V domains shown)
VH: EVQLVQSGAEVKKPGSSVKVSCKASGYTFSNYWMHWVRQAPGQGLEWMGDIDPSHSETHYTQKFKDRVTITVDKSTSTAYMELSSLRSEDTAVYYCARGDLGRFDYWGQGTTVTVSS
VL: DIVMTQSPDSLAVSLGERATINCRASESVSIHGTHLMHWYQQKSGQPPKLLIYAASNLESGVPDRFSGSGSETDFTLTISSLQAEDVAVYYCQQSFEDPWTFGGGTKVEIK
notes: Humanized
On to B6, for which, in assay [1], the midpoint of the response, the EC50, lay at 27 pM and the “Max OD450” value came to 2.75 OD450. Also, in assay [2], the midpoint of the response, the EC50, lay at 177 pM and the “Max MFI” value is 14500 MFI. In assay [3], this molecule registered a Kd of 21500 pM, a koff of 0.00422 s⁻¹ and a kon of 196000 M⁻¹ s⁻¹.

B7: hCDH6-1-H3L2 (antibody, V domains shown)
VH: EVQLVQSGAEVKKPGSSVKVSCKASGYTFTNYWMHWVRQAPGQGLEWMGDIDPSHSETHYTQKFKDRVTLTVDKSTSTAYMELSSLRSEDTAVYYCARGDLGRFDYWGQGTTVTVSS
VL: DIVMTQSPDSLAVSLGERATINCRASESVSIHGTHLMHWYQQKSGQPPKLLIYAASNLESGVPDRFSGSGSETDFTLTISSLQAEDVAVYYCQQSFEDPWTFGGGTKVEIK
notes: Humanized
Consider B7, for which, in assay [1], the EC50 is 26 pM and the “Max OD450” value was 2.58 OD450. For the same molecule, in assay [2], the EC50 was determined as 167 pM and the “Max MFI” value came to 14300 MFI.

B8: hCDH6-1-H4L2 (antibody, V domains shown)
VH: EVQLVQSGAEVKKPGSSVKVSCKASGYTFTNYWMHWVRQRPGQGLEWMGDIDPSHSETHYTQKFKDRVTITVDKSTSTAYMELSSLRSEDTAVYYCARGDLGRFDYWGQGTTVTVSS
VL: DIVMTQSPDSLAVSLGERATINCRASESVSIHGTHLMHWYQQKSGQPPKLLIYAASNLESGVPDRFSGSGSETDFTLTISSLQAEDVAVYYCQQSFEDPWTFGGGTKVEIK
notes: Humanized
On to B8, for which, in assay [1], it took 26 pM to reach a half-maximal effect (EC50) and the “Max OD450” value was determined as 2.55 OD450. Further, in assay [2], the midpoint of the response, the EC50, lay at 176 pM and the “Max MFI” value turned out to be 15200 MFI.

B9: hCDH6-1-H3L1 (antibody, V domains shown)
VH: EVQLVQSGAEVKKPGSSVKVSCKASGYTFTNYWMHWVRQAPGQGLEWMGDIDPSHSETHYTQKFKDRVTLTVDKSTSTAYMELSSLRSEDTAVYYCARGDLGRFDYWGQGTTVTVSS
VL: DIVMTQSPDSLAVSLGERATINCRASESVSIHGTHLMHWYQQKPGQPPKLLIYAASNLESGVPDRFSGSGSETDFTLTISSLQAEDVAVYYCQQSFEDPWTFGGGTKVEIK
notes: Humanized
In the case of B9, in assay [1], the midpoint of the response, the EC50, lay at 26 pM and the “Max OD450” value stood at 2.6 OD450. Moreover, in assay [2], the EC50 is 154 pM and the “Max MFI” value is 14600 MFI.
